Publication PMC5105168, “AKAP95 regulates splicing through scaffolding RNAs and RNA processing factors” (Nature Communications, 2016)

B1: GST-hnRNP H1 (natural protein, human (cDNA from 293 cells), UniProt P31943 1-449, looked up)
chain: MMLGTEGGEGFVVKVRGLPWSCSADEVQRFFSDCKIQNGAQGIRFIYTREGRPSGEAFVELESEDEVKLALKKDRETMGHRYVEVFKSNNVEMDWVLKHTGPNSPDTANDGFVRLRGLPFGCSKEEIVQFFSGLEIVPNGITLPVDFQGRSTGEAFVQFASQEIAEKALKKHKERIGHRYIEIFKSSRAEVRTHYDPPRKLMAMQRPGPYDRPGAGRGYNSIGRGAGFERMRRGAYGGGYGGYDDYNGYNDGYGFGSDRFGRDLNYCFSGMSDHRYGDGGSTFQSTTGHCVHMRGLPYRATENDIYNFFSPLNPVRVHIEIGPDGRVTGEADVEFATHEDAVAAMSKDKANMQHRYVELFLNSTAGASGGAYEHRYVELFLNSTAGASGGAYGSQMMGGMGLSNQSSYGGPASQQLSGGYGGGYGGQSSMSGYDQVLQENSSDFQSNIA
notes: hnRNP H1, cDNA amplified from 293 cell cDNAs, cloned into pGEX-4T-1; source: E. coli BL21 (DE3), purified on glutathione sepharose 4B without elution
B2: purified Flag-tagged AKAP95 (natural protein)
chain: not shown
notes: AKAP95 (AKAP8) cDNA in pFastBac1; also called F-AKAP95; FLAG-AKAP95; source: sf9 cells (baculovirus), purified (anti-FLAG M2 agarose, FLAG peptide elution)

Experiments:
[1] = molecular target: B2; test: pull-down; GST fusions bound to glutathione resin, purified F-AKAP95 proteins in solution, BC200, 0.1% NP40, immunoblot; details: both partners purified
[2] = molecular target: T1, purified AKAP95-MBP fusion protein (human, UniProt O43823 1-692); test: pull-down; purified MBP or AKAP95-MBP bound to amylose resin, purified F-AKAP95 in solution, BC200, 0.05% NP40, immunoblot; details: both partners purified
T1 construct: AKAP95 (AKAP8); source: sf9 cells (baculovirus), purified on amylose resin, kept on the resin
T1 sequence (O43823 whole entry, the tested form may be a part): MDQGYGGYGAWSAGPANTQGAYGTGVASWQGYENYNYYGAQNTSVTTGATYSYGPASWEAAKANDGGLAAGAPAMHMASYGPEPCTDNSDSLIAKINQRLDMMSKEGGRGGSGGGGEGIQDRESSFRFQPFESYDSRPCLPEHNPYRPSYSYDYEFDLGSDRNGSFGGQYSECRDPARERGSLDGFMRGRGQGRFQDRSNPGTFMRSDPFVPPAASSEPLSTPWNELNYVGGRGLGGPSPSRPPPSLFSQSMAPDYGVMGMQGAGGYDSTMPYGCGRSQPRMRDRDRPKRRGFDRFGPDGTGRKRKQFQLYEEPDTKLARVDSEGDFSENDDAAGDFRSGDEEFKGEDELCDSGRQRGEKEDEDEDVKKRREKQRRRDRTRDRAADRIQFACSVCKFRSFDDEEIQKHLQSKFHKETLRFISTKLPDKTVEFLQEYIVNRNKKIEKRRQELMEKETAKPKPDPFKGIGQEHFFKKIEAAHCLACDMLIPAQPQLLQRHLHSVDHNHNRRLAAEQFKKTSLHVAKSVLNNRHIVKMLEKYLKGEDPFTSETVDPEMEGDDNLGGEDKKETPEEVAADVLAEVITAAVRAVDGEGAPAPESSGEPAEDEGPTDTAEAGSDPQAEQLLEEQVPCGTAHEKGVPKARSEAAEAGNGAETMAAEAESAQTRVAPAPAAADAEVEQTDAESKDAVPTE

Binder | binding result [1] | binding result [2]
B1 | binds | –
B2 | – | binds
